Where two headings read alike, the source gives them in different places.
Tests used:
CD28 (human) [1] = target: CD28 (human) (UniProt P10747)
PD-L1 (human) [2] = target: PD-L1 (human) (UniProt Q9NZQ7); assay: flow cytometry, CHO cells stably expressing PD-L1
CD28 (human) [3] = target: CD28 (human) (UniProt P10747); assay: flow cytometry, Jurkat cells (CD28)
human CTLA-4 (human) [4] = target: human CTLA-4 (human) (UniProt P16410); assay: flow cytometry, CHO cells stably expressing CTLA4
PD-L1 (human) [5] = target: PD-L1 (human) (UniProt Q9NZQ7)
Target sequence in this assay (Q9NZQ7 19-290): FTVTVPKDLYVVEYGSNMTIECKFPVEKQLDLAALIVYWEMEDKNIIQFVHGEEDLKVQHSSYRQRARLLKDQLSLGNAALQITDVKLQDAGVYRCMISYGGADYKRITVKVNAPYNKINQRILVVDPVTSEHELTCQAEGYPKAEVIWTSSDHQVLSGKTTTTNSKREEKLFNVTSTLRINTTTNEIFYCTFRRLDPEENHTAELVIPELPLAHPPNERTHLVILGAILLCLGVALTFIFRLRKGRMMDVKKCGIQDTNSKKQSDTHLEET

CD28 (human) [6] = target: CD28 (human) (UniProt P10747); remark: listed apart in the source
PD-L1 (human) [7] = target: PD-L1 (human) (UniProt Q9NZQ7); assay: flow cytometry, CHO cells expressing PD-L1
CD28 (human) [8] = target: CD28 (human) (UniProt P10747); assay: flow cytometry, HEK293 cells transfected with human CD28
PD-L1 (human) [9] = target: PD-L1 (human) (UniProt Q9NZQ7); assay: flow cytometry, CHO cells stably expressing PD-L1; remark: listed apart in the source
CD28 (human) [10] = target: CD28 (human) (UniProt P10747); assay: flow cytometry, Jurkat cells (CD28); remark: listed apart in the source
[11] = target: CD28, endogenously expressed on Jurkat/IL2 reporter cells (human) (UniProt P10747); assay: flow cytometry on Jurkat (CD28) cells; MFI relative to WT CD80 (CD80 WT IgV-Fc = 1.0)
[12] = target: human PD-L1 (huPD-L1), on stably transduced CHO cells (human) (UniProt Q9NZQ7); assay: flow cytometry on CHO/huPD-L1 cells; MFI relative to WT CD80 (CD80 WT IgV-Fc = 1.0)
Chain of human PD-L1 (huPD-L1), on stably transduced CHO cells (human) (Q9NZQ7 19-290): as above

[13] = target: human PD-L1 (huPD-L1), on stably transduced CHO cells (human) (UniProt Q9NZQ7); assay: flow cytometry on CHO cells stably expressing huPD-L1, 33.3 nM Fc fusion, PE anti-human Fc
[14] = target: human CTLA-4 (huCTLA4), on stably transduced CHO cells (human) (UniProt P16410); assay: flow cytometry on CHO cells stably expressing huCTLA4, 33.3 nM Fc fusion, PE anti-human Fc
Chain of human CTLA-4 (huCTLA4), on stably transduced CHO cells (human) (P16410 36-223): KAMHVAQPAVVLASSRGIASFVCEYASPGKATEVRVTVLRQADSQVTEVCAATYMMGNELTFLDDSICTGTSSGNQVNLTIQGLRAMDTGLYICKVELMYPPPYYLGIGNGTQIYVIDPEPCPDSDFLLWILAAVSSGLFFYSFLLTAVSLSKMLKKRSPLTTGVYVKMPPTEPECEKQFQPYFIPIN

[15] = target: human CTLA-4 (huCTLA4), on stably transduced CHO cells (human) (UniProt P16410); assay: flow cytometry on CHO/huCTLA4 cells; MFI relative to WT CD80 (CD80 WT IgV-Fc = 1.0)
[16] = target: CD28, endogenously expressed on Jurkat/IL2 reporter cells (human) (UniProt P10747); assay: flow cytometry on Jurkat/IL2 reporter cells (endogenous CD28), 33.3 nM Fc fusion, PE anti-human Fc
[17] = target: human PD-L1 (huPD-L1), on stably transduced CHO cells (human) (UniProt Q9NZQ7); assay: flow cytometry; ratio of MFI on CHO/huPD-L1 cells to MFI on Jurkat (CD28) cells
human CTLA-4 (human) [18] = target: human CTLA-4 (human) (UniProt P16410); assay: flow cytometry, HEK293 cells transfected with human CTLA-4; negative control
Target sequence in this assay (P16410 36-223): as above

PD-L1 (human) [19] = target: PD-L1 (human) (UniProt Q9NZQ7); assay: flow cytometry, HEK293 cells transfected with human PD-L1; negative control
Target sequence in this assay (Q9NZQ7 19-290): as the sequence (Q9NZQ7 19-290) above

CD28 (human) [20] = target: CD28 (human) (UniProt P10747); assay: flow cytometry, HEK293 cells transfected with human CD28; negative control
PD-L1 (human) [21] = target: PD-L1 (human) (UniProt Q9NZQ7); remark: listed apart in the source
Target sequence in this assay (Q9NZQ7 19-290): as above

CD28 (human) [22] = target: CD28 (human) (UniProt P10747); remark: listed apart in the source
human CTLA-4 (human) [23] = target: human CTLA-4 (human) (UniProt P16410); assay: flow cytometry, CHO/CTLA4 cells; MFI over CD80 WT IgV-Fc
Target sequence in this assay (P16410 36-223): as the sequence (P16410 36-223) above

CD28 (human) [24] = target: CD28 (human) (UniProt P10747); assay: flow cytometry, Jurkat cells (CD28); MFI over CD80 WT IgV-Fc
PD-L1 (human) [25] = target: PD-L1 (human) (UniProt Q9NZQ7); assay: flow cytometry, CHO/PD-L1 cells; MFI over CD80 WT IgV-Fc
Target sequence in this assay (Q9NZQ7 19-290): as the sequence (Q9NZQ7 19-290) above

PD-L1 (human) [26] = target: PD-L1 (human) (UniProt Q9NZQ7); remark: listed apart in the source
Target sequence in this assay (Q9NZQ7 19-290): as above

CD28 (human) [27] = target: CD28 (human) (UniProt P10747); remark: listed apart in the source
PD-L1 (human) [28] = target: PD-L1 (human) (UniProt Q9NZQ7); remark: listed apart in the source
Target sequence in this assay (Q9NZQ7 19-290): as above

CD28 (human) [29] = target: CD28 (human) (UniProt P10747); remark: listed apart in the source
CD28 (human) [30] = target: CD28 (human) (UniProt P10747); assay: flow cytometry, HEK293 cells transfected with full-length human CD28, PE anti-human Fc
PD-L1 (human) [31] = target: PD-L1 (human) (UniProt Q9NZQ7); assay: flow cytometry, HEK293 cells transfected with full-length human PD-L1, PE anti-human Fc
human CTLA-4 (human) [32] = target: human CTLA-4 (human) (UniProt P16410); assay: flow cytometry, HEK293 cells transfected with full-length human CTLA-4, PE anti-human Fc
Target sequence in this assay (P16410 36-223): as the sequence (P16410 36-223) above

PD-L1 (human) [33] = target: PD-L1 (human) (UniProt Q9NZQ7); remark: listed apart in the source
CD28 (human) [34] = target: CD28 (human) (UniProt P10747); remark: listed apart in the source
PD-L1 (human) [35] = target: PD-L1 (human) (UniProt Q9NZQ7); remark: listed apart in the source
CD28 (human) [36] = target: CD28 (human) (UniProt P10747); remark: listed apart in the source
PD-L1 (human) [37] = target: PD-L1 (human) (UniProt Q9NZQ7); assay: flow cytometry, HEK293 cells transfected with human PD-L1
PD-L1 (human) [38] = target: PD-L1 (human) (UniProt Q9NZQ7); assay: flow cytometry, CHO cells expressing huPD-L1
human CTLA-4 (human) [39] = target: human CTLA-4 (human) (UniProt P16410); assay: flow cytometry, CHO cells expressing huCTLA4, vs WT CD80 ECD-Fc (R&D)
Target sequence in this assay (P16410 36-223): as above

CD28 (human) [40] = target: CD28 (human) (UniProt P10747); assay: flow cytometry, Jurkat/IL2 reporter cells (CD28)
human CTLA-4 (human) [41] = target: human CTLA-4 (human) (UniProt P16410); assay: flow cytometry, CHO cells expressing huCTLA4
Target sequence in this assay (P16410 36-223): as above

CD28 (human) [42] = target: CD28 (human) (UniProt P10747); assay: flow cytometry, Jurkat/IL2 reporter cells (CD28), vs WT CD80 ECD-Fc (R&D)
PD-L1 (human) [43] = target: PD-L1 (human) (UniProt Q9NZQ7); assay: flow cytometry, transfected Expi293F cells
human CTLA-4 (human) [44] = target: human CTLA-4 (human) (UniProt P16410); assay: flow cytometry, transfected Expi293F cells
Target sequence in this assay (P16410 36-223): as above

Human IgG1 Isotype Control (antibody)
Relative Luminescence (RLU), Jurkat/IL2 reporter assay, at 100000 pM (CD28 (human) [1]): 965 RLU | MFI at 66.7 nM (PD-L1 (human) [2]): 96.4 | MFI at 66.7 nM (CD28 (human) [3]): 73.2 | MFI at 66.7 nM (human CTLA-4 (human) [4]): 69.4

CD80 E35D/D46V/M47L/V68M/L85Q/E88D IgV-Fc, delta linker (Fc fusion)
IL2-luciferase reporter, fold increase in RLU over WT CD80-IgV-Fc at 5.0 nM (PD-L1 (human) [5]): 2.77 fold | IL2-luciferase reporter, fold increase in RLU over WT CD80-IgV-Fc at 5.0 nM (CD28 (human) [6]): 2.77 fold

CD80 E35D/M47V/N48K/V68M/K89N IgV-Fc, delta linker (Fc fusion)
IL2-luciferase reporter, fold increase in RLU over WT CD80-IgV-Fc at 5.0 nM (PD-L1 (human) [5]): 2.63 fold | IL2-luciferase reporter, fold increase in RLU over WT CD80-IgV-Fc at 5.0 nM (CD28 (human) [6]): 2.63 fold

WT CD80 ECD-Fc (Fc fusion)
MFI at 33.3 nM (PD-L1 (human) [7]): 52 MFI | MFI at 66.6 nM (CD28 (human) [8]): 24800 | MFI at 33.3 nM (PD-L1 (human) [9]): 58 MFI | MFI at 33.3 nM (CD28 (human) [3]): 31 MFI | MFI at 33.3 nM (CD28 (human) [3]; record 2): 30 MFI | MFI at 33.3 nM (CD28 (human) [10]): 46 MFI

variant CD80 IgV-Fc E35D/T41S/N48T (Fc fusion)
Fold change to WT CD80 [11]: 1.1 fold | Fold change to WT CD80 [12]: 31.2 fold | MFI at 33.3 nM [13]: 2190 MFI | MFI at 33.3 nM [14]: 30300 MFI | Fold change to WT CD80 [15]: 15.8 fold | MFI at 33.3 nM [16]: 72.4 MFI | Ratio of PDL1:CD28 [17]: 30

Fc only
MFI at 66.6 nM (human CTLA-4 (human) [18]): 5960 | MFI at 22.2 nM (PD-L1 (human) [19]): 4740 | MFI at 66.6 nM (CD28 (human) [20]): 2590

variant CD80 IgV-Fc (inert) H18Y/A26Q/E35D/M47T/V68M/A71G/D90G (Fc fusion)
IL2-luciferase reporter, fold increase in RLU over WT CD80-IgV-Fc at 5.0 nM (PD-L1 (human) [21]): 5.8 fold | IL2-luciferase reporter, fold increase in RLU over WT CD80-IgV-Fc at 5.0 nM (CD28 (human) [22]): 5.8 fold | Fold change to WT CD80 (human CTLA-4 (human) [23]): 12 fold | Fold change to WT CD80 (CD28 (human) [24]): 66 fold | MFI at 33.3 nM (PD-L1 (human) [2]): 24400 MFI | MFI at 33.3 nM (CD28 (human) [3]): 6730 MFI | MFI at 33.3 nM (human CTLA-4 (human) [4]): 16700 MFI | Fold change to WT CD80 (PD-L1 (human) [25]): 148 fold

WT CD80 IgV-Fc (inert) (Fc fusion)
Jurkat/IL2 reporter RLU at 50 nM, K562/OKT3/PD-L1 aAPC (PD-L1 (human) [26]): 566 RLU | Jurkat/IL2 reporter RLU at 50 nM, K562/OKT3/PD-L1 aAPC (CD28 (human) [27]): 566 RLU | Jurkat/IL2 reporter RLU at 50 nM, CHO/OKT3/PD-L1 aAPC (PD-L1 (human) [28]): 483 RLU | Jurkat/IL2 reporter RLU at 50 nM, CHO/OKT3/PD-L1 aAPC (CD28 (human) [29]): 483 RLU | Jurkat/IL2 reporter RLU at 50 nM, CHO/OKT3 aAPC without PD-L1 (CD28 (human) [29]): 479 RLU | MFI at 66.6 nM (CD28 (human) [30]): 1620 MFI | MFI at 22.2 nM (PD-L1 (human) [31]): 1770 MFI | MFI at 66.6 nM (human CTLA-4 (human) [32]): 20700 MFI | IL-2 release, primary T cells + K562/OKT3/PD-L1, 100 nM (PD-L1 (human) [33]): 52 | IL-2 release, primary T cells + K562/OKT3/PD-L1, 100 nM (CD28 (human) [34]): 52 | Jurkat/IL2 reporter RLU at 50 nM, K562/OKT3/PD-L1 aAPC (PD-L1 (human) [35]): 206 RLU | Jurkat/IL2 reporter RLU at 50 nM, K562/OKT3/PD-L1 aAPC (CD28 (human) [36]): 206 RLU

variant CD80 IgV-Fc S44P/A71D (Fc fusion)
MFI at 22.2 nM (PD-L1 (human) [37]): 6310

variant CD80 IgV-Fc E35D/M42V/M47V/E52D/L85Q (Fc fusion)
MFI at 33.3 nM (PD-L1 (human) [38]): 11900 MFI | Fold change to WT CD80 (human CTLA-4 (human) [39]): 1.44 fold | MFI at 33.3 nM (CD28 (human) [40]): 1290 MFI | MFI at 33.3 nM (human CTLA-4 (human) [41]): 226000 MFI | Fold change to WT CD80 (CD28 (human) [42]): 0.07 fold

CD80 R29D/Y31L/Q33H/K36G/M38I/T41A/M43R/M47T/L85R/K89N/A91T/F92P/K93V/R94L/I118V/T120S/I127T/T130A/K169E/H188D ECD-Fc (Fc fusion)
MFI (PD-L1 (human) [43]): 110000 | MFI (human CTLA-4 (human) [44]): 2200

Reference: patent US20220177587A1, “METHODS AND USES OF VARIANT CD80 FUSION PROTEINS AND RELATED CONSTRUCTS” (Alpine Immune Sciences, Inc., priority 2018, published 2022)
